Test results published in publication PMC9556597.

Target: AV-1980R recombinant protein (3xTau2-18-MultiTEP) (human) (UniProt P10636)
Experiment: AUC; protein in 3.2 M urea

- stoichiometry N: 4
Substance: AV-1980R recombinant protein (3xTau2-18-MultiTEP) (from UniProt P10636 2-18; P10636 2-18; P10636 2-18)
